Legend:
mouse FcγRIII = biological target: T1, mouse FcγRIII (mouse, UniProt P08508 31-215); assay: SPR (Biacore T100/T200): FcγR injected over the antibody held by mouse FcRn immobilised on a CM4 chip (simultaneous binding), pH 7.4, 25 C
T1 construct: bought; also called mFcgRIII; mFcgR III
T1 sequence (looked up): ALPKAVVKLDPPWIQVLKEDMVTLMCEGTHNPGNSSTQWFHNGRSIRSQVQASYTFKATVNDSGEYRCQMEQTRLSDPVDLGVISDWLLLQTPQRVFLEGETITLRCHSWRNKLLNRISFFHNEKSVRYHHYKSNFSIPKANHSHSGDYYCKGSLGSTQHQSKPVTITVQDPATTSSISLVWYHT
Method: (§1) An evaluation was made as to whether or not human or mouse FcRn and human or mouse FcγRs simultaneously bind to an antigen-binding molecule using the BIACORE™ T100 or T200 surface plasmon resonance system (GE Healthcare). The antigen-binding molecule being tested was captured by human or mouse FcRn immobilized on the CM4 Sensor Chip (GE Healthcare) by amine coupling. Next, diluted human or mouse FcγRs and a running buffer used as a blank were injected to allow the human or mouse FcγRs to interact with the antigen-binding molecule bound to FcRn on the sensor chip. A buffer consisting of 50 mmol/L sodium phosphate, 150 mmol/L NaCl and 0.05% (w/v) polysorbate 20 (Tween 20®) (pH 7.4) was used for the running buffer, and this buffer was also used to dilute the FcγRs. 10 mmol/L Tris-HCl (pH 9.5) was used to regenerate the sensor chip. All binding measurements were carried out at 25° C.

mouse FcγRIIb = biological target: T2, mouse FcγRIIb (mouse, UniProt P08101 30-207, limits assumed); assay: as above
T2 construct: bought; also called mFcgRIIb; mFcgR IIb
T2 sequence (looked up): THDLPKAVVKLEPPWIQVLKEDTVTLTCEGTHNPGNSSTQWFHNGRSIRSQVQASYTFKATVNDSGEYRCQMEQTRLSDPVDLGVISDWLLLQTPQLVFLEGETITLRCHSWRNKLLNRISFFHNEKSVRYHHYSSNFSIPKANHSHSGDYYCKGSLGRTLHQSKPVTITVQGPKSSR
Method: as §1

mouse FcγRI = biological target: T3, mouse FcγRI (mouse, UniProt P26151 25-297); assay: SPR (Biacore T100/T200): FcγR injected over the antibody held by mouse FcRn immobilised on a CM4 chip, pH 7.4, 25 C
T3 construct: bought; also called mFcgRI; mFcgR 1
T3 sequence (looked up): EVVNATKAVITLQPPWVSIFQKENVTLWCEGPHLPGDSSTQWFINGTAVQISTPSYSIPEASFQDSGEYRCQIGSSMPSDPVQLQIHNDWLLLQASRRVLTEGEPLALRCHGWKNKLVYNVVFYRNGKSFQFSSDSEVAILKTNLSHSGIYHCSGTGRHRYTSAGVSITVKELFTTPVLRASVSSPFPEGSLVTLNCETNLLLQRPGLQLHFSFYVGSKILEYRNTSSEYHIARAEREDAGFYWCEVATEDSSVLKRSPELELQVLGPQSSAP
Method: as §1

mouse FcγRIV = biological target: T4, mouse FcγRIV (mouse, UniProt A0A0B4J1G0 21-203); assay: as above
T4 construct: bought; also called mFcgRIV; mFcgR IV; the vendor's purification tag not given
T4 sequence: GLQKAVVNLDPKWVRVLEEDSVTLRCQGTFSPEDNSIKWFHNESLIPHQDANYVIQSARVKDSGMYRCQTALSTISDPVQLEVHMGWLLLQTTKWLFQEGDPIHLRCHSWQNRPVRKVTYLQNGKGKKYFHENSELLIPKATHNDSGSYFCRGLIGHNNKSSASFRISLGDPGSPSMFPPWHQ

- binding result (mouse FcγRIII): binds
- binding result (mouse FcγRIIb): binds
- binding result (mouse FcγRI): no binding
- binding result (mouse FcγRIV): no binding
B1: mPM1-mIgG1-mF3 (mPM1H-mIgG1-mF3 and mPM1L-mk1) (antibody)
heavy: DVQLQESGPVLVKPSQSLSLTCTVTGYSITSDHAWSWIRQFPGNKLEWMGYISYSGITTYNPSLKSRISITRDTSKNQFFLQLNSVTTGDTSTYYCARSLARTTAMDYWGQGTSVTVSSAKTTPPSVYPLAPGSAAQTNSMVTLGCLVKGYFPEPVTVTWNSGSLSSGVHTFPAVLQSDLYTLSSSVTVPSSTWPSETVTCNVAHPASSTKVDKKIVPRDCGCKPCICTVPEVSSVFIFPPKPKDVLYITLEPKVTCVVVDISKDDPEVQFSWFVDDVEVHTAQTQPREEQFNSTFRSVSELPIMHQDWLNGKEFKCRVNSAAFPAPIEKTISKTKGRPKAPQVYTIPPPKEQMAKDKVSLTCMITDFFPEDITVEWQWNGQPAENYKNTQPIMDTDGSYFVYSKLNVQKSNWEAGNTFTCSVLHEGLKFHHTEKSLSHSPGK
light: DIQMTQTTSSLSASLGDRVTISCRASQDISSYLNWYQQKPDGTIKLLIYYTSRLHSGVPSRFSGSGSGTDYSLTINNLEQEDIATYFCQQGNTLPYTFGGGTKLEIKRADAAPTVSIFPPSSEQLTSGGASVVCFLNNFYPKDINVKWKIDGSERQNGVLNSWTDQDSKDSTYSMSSTLTLTKDEYERHNSYTCEATHKTSTSPIVKSFNRNEC
notes: copies: 2 + 2

— patent publication US20200199241A1 (Chugai, published 2020)
